This note sets out measurements from patent publication US20130071375A1.

In assay [1] the target is Endothelial protein C receptor (human) (UniProt Q9UNN8). Put plainly: cell-based or functional assay.
For assay [2], the target named is Protease-activated receptor 1 (human) (UniProt P25116). Put plainly: cell-based or functional assay.

Values joined by “and” are separate entries in the source; they are usually repeats but may differ in a detail not shown here. Equal entries are not always repeated.

Chain of Endothelial protein C receptor (human) (Q9UNN8 18-238): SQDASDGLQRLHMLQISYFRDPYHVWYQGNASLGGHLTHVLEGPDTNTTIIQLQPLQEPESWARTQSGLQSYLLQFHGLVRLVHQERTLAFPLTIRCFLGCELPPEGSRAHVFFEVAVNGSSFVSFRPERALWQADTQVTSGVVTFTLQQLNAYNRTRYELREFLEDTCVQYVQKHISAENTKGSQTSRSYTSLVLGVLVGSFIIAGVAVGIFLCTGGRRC
Chain of Protease-activated receptor 1 (human) (P25116 42-425): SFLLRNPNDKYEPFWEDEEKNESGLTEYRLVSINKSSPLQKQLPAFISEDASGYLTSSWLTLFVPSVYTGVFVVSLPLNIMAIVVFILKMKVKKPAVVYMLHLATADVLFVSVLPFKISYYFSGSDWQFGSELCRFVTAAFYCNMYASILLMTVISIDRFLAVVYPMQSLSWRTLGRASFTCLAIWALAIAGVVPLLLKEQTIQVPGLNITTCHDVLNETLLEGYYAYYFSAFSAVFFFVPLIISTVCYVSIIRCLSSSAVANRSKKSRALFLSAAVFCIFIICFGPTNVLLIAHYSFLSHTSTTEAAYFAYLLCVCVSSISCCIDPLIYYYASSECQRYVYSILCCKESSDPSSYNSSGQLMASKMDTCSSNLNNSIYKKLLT

For the substance “Activated protein C (from UniProt P04070 43-461)”, in assay [1], the inhibition of LPS (100 ng/mL)-mediated HMGB1 release by HUVECs (ELISA) is > 10 nM and 100 nM.
The substance “PCgla/meizothrombin (meizothrombin with its Gla-domain replaced by that of protein C; Factor Xa-activated PCgla/prothrombin-3A)” returned an inhibition of LPS (100 ng/mL)-mediated HMGB1 release by HUVECs (ELISA) in assay [1] below 1 nM. The efficacy relative to APC in inhibiting adherence and migration of THP-1 cells across HMGB1-activated HUVEC monolayer in assay [2] is 20 to 50 fold.
